Source: the Human Domainome abundance scans (Beltran et al. 2025)
± gives the uncertainty stated by the source.

B1: CD2-associated protein, residues 271 to 331; numbered along this chain, Q9Y5K6 (parent)
chain: KEYCRTLFAYEGTNEDELTFKEGEIIHLISKETGEAGWWRGELNGKEGVFPDNFAVQINEL

Variants of: B1
Experiment: abundance fitness (aPCA) (normalised: wild type 0, dead -1); higher = more abundant; growth selection in yeast, the domain comes from the species named
Conditions: Homo sapiens

Q: With KEYCRTLFAYEGTNEDELTFKEGEIIHLISKECGEAGWWRGELNGKEGVFPDNFAVQINEL [T33C] as the variant, how does the abundance fitness read?
A: Its abundance fitness is -0.163 ± 0.11.

Q: For KEYCRTLFAYEGTNEDELTFKEGEIIHLISKEQGEAGWWRGELNGKEGVFPDNFAVQINEL [T33Q], which abundance fitness is on record?
A: Its abundance fitness is -0.451 ± 0.09.

Q: For KEYCRTLFAYEGTNEDELTFKEGEIIHLISKEVGEAGWWRGELNGKEGVFPDNFAVQINEL [T33V], which abundance fitness is on record?
A: The abundance fitness was -0.129 ± 0.064.

Q: For KEYCRTLFAYEGTNEDELTFKEGEIIHLISKEWGEAGWWRGELNGKEGVFPDNFAVQINEL [T33W], which abundance fitness is on record?
A: Its abundance fitness is -0.331 ± 0.057.

Q: Which abundance fitness does the source give for KEYCRTLFAYEGTNEDELTFKEGEIIHLISKEEGEAGWWRGELNGKEGVFPDNFAVQINEL [T33E] here?
A: The abundance fitness was -0.471 ± 0.085.

Q: For KEYCRTLFAYEGTNEDELTFKEGEIIHLISKEGGEAGWWRGELNGKEGVFPDNFAVQINEL [T33G], which abundance fitness is on record?
A: The abundance fitness was -0.076 ± 0.056.

Q: Which abundance fitness does the source give for KEYCRTLFAYEGTNEDELTFKEGEIIHLISKELGEAGWWRGELNGKEGVFPDNFAVQINEL [T33L] here?
A: Its abundance fitness is -0.349 ± 0.061.

Q: For KEYCRTLFAYEGTNEDELTFKEGEIIHLISKEAGEAGWWRGELNGKEGVFPDNFAVQINEL [T33A], which abundance fitness is on record?
A: The abundance fitness was -0.198 ± 0.083.

Q: Which abundance fitness does the source give for KEYCRTLFAYEGTNEDELTFKEGEIIHLISKEIGEAGWWRGELNGKEGVFPDNFAVQINEL [T33I] here?
A: Its abundance fitness is -0.099 ± 0.14.

Q: With KEYCRTLFAYEGTNEDELTFKEGEIIHLISKEMGEAGWWRGELNGKEGVFPDNFAVQINEL [T33M] as the variant, how does the abundance fitness read?
A: Its abundance fitness is -0.468 ± 0.096.

Q: With KEYCRTLFAYEGTNEDELTFKEGEIIHLISKEDGEAGWWRGELNGKEGVFPDNFAVQINEL [T33D] as the variant, how does the abundance fitness read?
A: Its abundance fitness is -0.282 ± 0.12.

Q: Which abundance fitness does the source give for KEYCRTLFAYEGTNEDELTFKEGEIIHLISKERGEAGWWRGELNGKEGVFPDNFAVQINEL [T33R] here?
A: The abundance fitness was -0.473 ± 0.045.

Q: With KEYCRTLFAYEGTNEDELTFKEGEIIHLISKEFGEAGWWRGELNGKEGVFPDNFAVQINEL [T33F] as the variant, how does the abundance fitness read?
A: Its abundance fitness is -0.32 ± 0.13.

Q: With KEYCRTLFAYEGTNEDELTFKEGEIIHLISKEKGEAGWWRGELNGKEGVFPDNFAVQINEL [T33K] as the variant, how does the abundance fitness read?
A: Its abundance fitness is -0.332 ± 0.1.

Q: With KEYCRTLFAYEGTNEDELTFKEGEIIHLISKEPGEAGWWRGELNGKEGVFPDNFAVQINEL [T33P] as the variant, how does the abundance fitness read?
A: Its abundance fitness is -0.242 ± 0.083.

Q: For KEYCRTLFAYEGTNEDELTFKEGEIIHLISKENGEAGWWRGELNGKEGVFPDNFAVQINEL [T33N], which abundance fitness is on record?
A: Its abundance fitness is -0.333 ± 0.16.

Q: For KEYCRTLFAYEGTNEDELTFKEGEIIHLISKEYGEAGWWRGELNGKEGVFPDNFAVQINEL [T33Y], which abundance fitness is on record?
A: The abundance fitness was -0.222 ± 0.1.

Q: Which abundance fitness does the source give for KEYCRTLFAYEGTNEDELTFKEGEIIHLISKESGEAGWWRGELNGKEGVFPDNFAVQINEL [T33S] here?
A: Its abundance fitness is -0.097 ± 0.063.

Q: Which abundance fitness does the source give for KEYCRTLFAYEGTNEDELTFKEGEIIHLISKEHGEAGWWRGELNGKEGVFPDNFAVQINEL [T33H] here?
A: The abundance fitness was -0.209 ± 0.12.

Q: Which abundance fitness does the source give for KEYCRTLFAYEGTNEDELTFKEGEIIHLISYETGEAGWWRGELNGKEGVFPDNFAVQINEL [K31Y] here?
A: The abundance fitness was -0.634 ± 0.076.

Q: For KEYCRTLFAYEGTNEDELTFKEGEIIHLISWETGEAGWWRGELNGKEGVFPDNFAVQINEL [K31W], which abundance fitness is on record?
A: The abundance fitness was -0.862 ± 0.47.

Q: With KEYCRTLFAYEGTNEDELTFKEGEIIHLISKETGHAGWWRGELNGKEGVFPDNFAVQINEL [E35H] as the variant, how does the abundance fitness read?
A: The abundance fitness was -0.078 ± 0.094.

Q: With KEYCRTLFAYEGTNEDELTFKEGEIIHLISKETGWAGWWRGELNGKEGVFPDNFAVQINEL [E35W] as the variant, how does the abundance fitness read?
A: The abundance fitness was -0.358 ± 0.11.

Q: Which abundance fitness does the source give for KEYCRTLFAYEGTNEDELTFKEGEIIHLISKETGAAGWWRGELNGKEGVFPDNFAVQINEL [E35A] here?
A: The abundance fitness was 0.055 ± 0.1.

Q: With KEYCRTLFAYEGTNEDELTFKEGEIIHLISKETGTAGWWRGELNGKEGVFPDNFAVQINEL [E35T] as the variant, how does the abundance fitness read?
A: Its abundance fitness is 0.132 ± 0.079.

Q: Which abundance fitness does the source give for KEYCRTLFAYEGTNEDELTFKEGEIIHLISKETGMAGWWRGELNGKEGVFPDNFAVQINEL [E35M] here?
A: The abundance fitness was -0.028 ± 0.097.

Q: Which abundance fitness does the source give for KEYCRTLFAYEGTNEDELTFKEGEIIHLISKETGQAGWWRGELNGKEGVFPDNFAVQINEL [E35Q] here?
A: The abundance fitness was 0.036 ± 0.067.

Q: Which abundance fitness does the source give for KEYCRTLFAYEGTNEDELTFKEGEIIHLISKETGPAGWWRGELNGKEGVFPDNFAVQINEL [E35P] here?
A: Its abundance fitness is -0.252 ± 0.067.

Q: Which abundance fitness does the source give for KEYCRTLFAYEGTNEDELTFKEGEIIHLISKETGRAGWWRGELNGKEGVFPDNFAVQINEL [E35R] here?
A: The abundance fitness was 0.034 ± 0.063.

Q: For KEYCRTLFAYEGTNEDELTFKEGEIIHLISKETGDAGWWRGELNGKEGVFPDNFAVQINEL [E35D], which abundance fitness is on record?
A: Its abundance fitness is 0.02 ± 0.12.

Q: Which abundance fitness does the source give for KEYCRTLFAYEGTNEDELTFKEGEIIHLISKETGCAGWWRGELNGKEGVFPDNFAVQINEL [E35C] here?
A: Its abundance fitness is -0.027 ± 0.12.

Q: Which abundance fitness does the source give for KEYCRTLFAYEGTNEDELTFKEGEIIHLISKETGGAGWWRGELNGKEGVFPDNFAVQINEL [E35G] here?
A: Its abundance fitness is -0.125 ± 0.13.

Q: With KEYCRTLFAYEGTNEDELTFKEGEIIHLISKETGNAGWWRGELNGKEGVFPDNFAVQINEL [E35N] as the variant, how does the abundance fitness read?
A: Its abundance fitness is 0.002 ± 0.11.

Q: With KEYCRTLFAYEGTNEDELTFKEGEIIHLISKETGYAGWWRGELNGKEGVFPDNFAVQINEL [E35Y] as the variant, how does the abundance fitness read?
A: The abundance fitness was 0.055 ± 0.13.

Q: Which abundance fitness does the source give for KEYCRTLFAYEGTNEDELTFKEGEIIHLISKETGKAGWWRGELNGKEGVFPDNFAVQINEL [E35K] here?
A: The abundance fitness was 0.069 ± 0.08.

Q: Which abundance fitness does the source give for KEYCRTLFAYEGTNEDELTFKEGEIIHLISKETGLAGWWRGELNGKEGVFPDNFAVQINEL [E35L] here?
A: The abundance fitness was -0.035 ± 0.052.

Q: For KEYCRTLFAYEGTNEDELTFKEGEIIHLISKETGIAGWWRGELNGKEGVFPDNFAVQINEL [E35I], which abundance fitness is on record?
A: The abundance fitness was 0.119 ± 0.12.

Q: Which abundance fitness does the source give for KEYCRTLFAYEGTNEDELTFKEGEIIHLISKETGVAGWWRGELNGKEGVFPDNFAVQINEL [E35V] here?
A: Its abundance fitness is 0.032 ± 0.099.

Q: Which abundance fitness does the source give for KEYCRTLFAYEGTNEDELTFKEGEIIHLISKETGSAGWWRGELNGKEGVFPDNFAVQINEL [E35S] here?
A: The abundance fitness was 0.034 ± 0.07.

Q: For KEYCRTLFAYEGTNEDELTFKEGEIIHLISKETAEAGWWRGELNGKEGVFPDNFAVQINEL [G34A], which abundance fitness is on record?
A: Its abundance fitness is -0.216 ± 0.094.

Q: With KEYCRTLFAYEGTNEDELTFKEGEIIHLISKETKEAGWWRGELNGKEGVFPDNFAVQINEL [G34K] as the variant, how does the abundance fitness read?
A: Its abundance fitness is 0.048 ± 0.098.

Q: Which abundance fitness does the source give for KEYCRTLFAYEGTNEDELTFKEGEIIHLISKETEEAGWWRGELNGKEGVFPDNFAVQINEL [G34E] here?
A: The abundance fitness was -0.155 ± 0.15.

Q: Which abundance fitness does the source give for KEYCRTLFAYEGTNEDELTFKEGEIIHLISKETNEAGWWRGELNGKEGVFPDNFAVQINEL [G34N] here?
A: Its abundance fitness is -0.426 ± 0.42.
